Entries after “also recorded” stand apart in the source; their conditions may differ. Where two headings read alike, the source gives them in different places. Values belong to the compound of their own block, whether it stands above or below them. Non-standard residues stand in square brackets, D forms with d. Residues, ends and D or L forms follow the SMILES beside them.
Experiments:
[1] = test system: HEK-CCR2; test: Cytotoxicity on HEK-CCR2; details: 4 hours of incubation at 37° C., 5% CO2, various concentrations
[2] = molecular target: T1, CCR2 (Homo sapiens, UniProt P41597); test: Calcium flux assay, CCL2-induced calcium release on HEK-CCR2; assay type: cell-based
T1 construct: expressed in transfected cells
Description: Cytosolic-free calcium assay was measured by fluorescent detection with the HitHunter™ Calcium No WashPLUS (Ca NWPLUS) assay kit (DiscoveRex, #90-0091). Briefly, HEK or CHO expressing the chemokine receptor of interest (5.104) were plated overnight at 37° C., 5% CO2 before pre-loading with a calcium sensitive dye (Ca NWPLUS working reagent) supplemented with probenecid (Sigma-Aldrich, #P8761) to avoid calcium dye leakage from the cells, for 1 h at 37° C. Cells were then treated with control buffer or peptides at various concentrations and appropriate agonist. Signal was measured as function of time on a fluorescent plate reader equipped with fluidic handling (FlexStation 3, Molecular Devices). Maximum change in fluorescence over baseline (peak signal) was used to determine agonist response, as quantified using SoftMax Pro software. All experiments were run in triplicate, and results are representative of at least three independent experiments.

[3] = molecular target: T1, CCR2; test: Radioligand binding assay, I125-CCL2 on HEK-CCR2; details: competition binding
Description: Binding assay was carried out using I125-CCL2 (specific activity 2200 Ci/mmol; Perkin elmer, inc.). 300.000 HEK cells stably expressing CCR2 and native cells were incubated with I125-CCL2 in the presence or absence of recombinant human CCL2 (10 nM or 100 nM) or ECL1 (C) inverso (1-10-30 μM) in 200 μl buffer (PBS containing 0.5% BSA and 0.01% HEPES). After 1 h incubation at 37° C., cells were washed three times with 1 ml of cold washing solution. Gamma emissions were then counted in the cell pellet with gamma counter. Non-specific binding represented less than 15% of total binding and was subtracted from total binding to define specific I125-CCL2 binding.

[4] = molecular target: T1, CCR2; test: β-arrestin recruitment assay (PathHunter), CCL2-induced; assay type: cell-based; details: HEK-CCR2
Description: Recruitment of β-arrestin in live cells was measured by chemoluminescence detection with the PathHunter™ eXpress β-Arrestin assay kit (DiscoveRex, #93-00446E1). Briefly, 100 μL PathHunter eXpress cells were expressing CCR2 were plated on a 96-well tissue culture treated plate for 48 hours at 37° C., 5% CO2. Cells were first incubated with ECL1 (C) inverso or control peptide and before adding 10 μL of the agonist, CCL2 diluted in OCC medium to achieve the EC80 determined beforehand or with OCC medium alone, for respectively 60 and 90 min at 37° C., 5% CO2. The reaction was stopped by adding 55 μL of the Working Detection Reagent Solution (PathHunter detection reagent) for 90 min at Room temperature. Chemoluminescent signal was read on a luminescent plate reader (TriStar LB 941, Berthold Technologies, Thoiry, France). Assays were run in triplicates.

[5] = molecular target: T1, CCR2; test: CCL2-Alexa 647 binding assay on HEK-CCR2; details: competition binding
Description: Binding was performed with the same cells. 200.000 cells were pre-incubated for 30 minutes at 4° C. in 100 μl buffer (PBS containing 0.5% BSA, 0.2% EDTA and NaN3 0.01%) with recombinant human CCL2 (50 nM, 100 nM and 500 nM), ECL1 (C) inverso (11.3 μM, 28.2 μM and 56.3 μM) or with buffer. After, 50 nM CCL2-alexa 647 (Almac) were add for 30 minutes at 4° C. and washed three times with 1 ml of cold buffer. Cells were incubated with 10 μl anti-human-CCR2 (BD pharmingen) for 30 minutes at 4° C. in the dark and washed three times with 1 ml of cold buffer. Cells and beads were counted on FACSCalibur flow cytometer and data were analysed with FlowJo software.

[6] = molecular target: T2, CCR5 (Homo sapiens, UniProt P51681); test: Migration assay, HEK-CCR5 induced by CCL5; assay type: cell-based; details: up to 500 μM
T2 construct: expressed in transfected cells
Description: (§1) Migration assays were performed in 24-transwell inserts (Corning Costar Avon, France) with 8 μm polycarbonate filter for HEK or CHO cells and 5 μm for MBMC. […] The bottom of each well was filled with 600 μL pre-warmed chemotaxis buffer at indicated chemokine concentration. The plates were then incubated for 4 hours at 37° C. in a 5% CO2 atmosphere. […] Before counting the cells by flow cytometry, mouse leukocytes were immunophenotyped with a mix of fluorescent antibodies (anti-mouse Ly6G-PE, anti-mouse NK1.1-PE, anti-mouse […], anti-mouse 7/4-FITC, BD Biosciences) and HEK expressing chemokine receptors with appropriate fluorescent anti-human chemokine receptor. Data were analysed with FlowJo software and results are expressed as a number of cells migrating in the presence or in the absence of chemoattractant. Experiments were run in triplicate, and results are representative of at least three independent experiments.

[7] = test system: HEK-CCR2
[8] = test system: MBCM
Description: Mouse bone marrow cells (MBMC) were obtained from C57BL/6 mice.
Cells were immunophenotyped by adding a mix of fluorescent antibodies (anti LY-6G-PE, anti CD11b-PerCP, anti 7/4-FITC, anti F4/80-APC, anti NK-PE) and counted by FACSCalibur flow cytometry with predetermined number of beads (Polybead, carboxylate microsphere Polyscience, Inc) added to the samples. Data were analyzed with FlowJo.

[9] = molecular target: T1, CCR2; test: Migration assay, HEK-CCR2 induced by CCL2; assay type: cell-based; details: up to 500 μM
Description: as §1

[10] = molecular target: T3, CX3CR1 (Homo sapiens, UniProt P49238); test: Migration assay, HEK-CX3CR1 induced by CX3CL1; assay type: cell-based; details: up to 500 μM
T3 construct: expressed in transfected cells
T3 sequence (P49238 1-355): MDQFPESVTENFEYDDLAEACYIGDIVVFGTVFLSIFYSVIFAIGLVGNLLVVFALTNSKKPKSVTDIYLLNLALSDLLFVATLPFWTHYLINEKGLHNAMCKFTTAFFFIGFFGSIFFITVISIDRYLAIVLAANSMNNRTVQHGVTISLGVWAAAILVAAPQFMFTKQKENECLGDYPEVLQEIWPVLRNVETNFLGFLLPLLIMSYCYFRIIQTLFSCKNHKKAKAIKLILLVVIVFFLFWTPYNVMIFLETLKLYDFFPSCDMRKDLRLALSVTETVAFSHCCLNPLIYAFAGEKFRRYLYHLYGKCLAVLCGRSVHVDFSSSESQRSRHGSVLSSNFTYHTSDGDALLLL
Description: as §1

[11] = test system: mouse monocytes; test: Migration assay, mouse monocytes / leukocytes (MBMC); assay type: cell-based; details: up to 500 μM
Description: as §1

T1 sequence (P41597 whole entry): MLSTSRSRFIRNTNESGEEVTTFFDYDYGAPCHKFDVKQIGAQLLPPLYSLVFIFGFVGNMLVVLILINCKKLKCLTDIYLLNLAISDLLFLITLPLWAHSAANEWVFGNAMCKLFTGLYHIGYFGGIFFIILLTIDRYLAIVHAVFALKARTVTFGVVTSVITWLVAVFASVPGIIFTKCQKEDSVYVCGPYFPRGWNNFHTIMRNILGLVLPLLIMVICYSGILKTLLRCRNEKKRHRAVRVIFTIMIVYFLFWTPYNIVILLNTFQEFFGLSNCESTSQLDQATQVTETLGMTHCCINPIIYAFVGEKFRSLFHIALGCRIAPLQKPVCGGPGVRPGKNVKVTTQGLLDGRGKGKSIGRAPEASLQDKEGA
T2 sequence (P51681 whole entry): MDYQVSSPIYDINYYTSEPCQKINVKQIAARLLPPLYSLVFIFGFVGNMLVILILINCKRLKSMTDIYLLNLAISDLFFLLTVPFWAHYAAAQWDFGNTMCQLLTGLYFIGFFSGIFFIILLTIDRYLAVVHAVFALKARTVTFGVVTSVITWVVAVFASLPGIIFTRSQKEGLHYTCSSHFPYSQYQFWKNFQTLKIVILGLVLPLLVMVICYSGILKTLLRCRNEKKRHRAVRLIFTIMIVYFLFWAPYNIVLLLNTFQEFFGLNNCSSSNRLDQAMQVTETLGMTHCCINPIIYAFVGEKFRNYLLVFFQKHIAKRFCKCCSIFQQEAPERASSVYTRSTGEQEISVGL

Compound: CC(C)C[C@@H](N)C(=O)NCC(=O)N[C@@H](C(=O)N[C@H](Cc1ccccc1)C(=O)N[C@H](CC(C)C)C(=O)N[C@H](CCCCN)C(=O)N[C@H](CS)C(=O)O)[C@H](C)O [ECL1 (C) inverso, LGTFLKC] (H-[dL]G[dT][dF][dL][dK][dC]-OH; N-terminus and C-terminus assumed)
cytotoxicity on HEK-CCR2 [1]: No cytotoxicity effect

EC80 of CCL2 for calcium release [2]: 50 nM
displacement of bound [125I]-CCL2 on HEK-CCR2 [3]: could displace dose-dependently
EC80 of CCL2 for β-arrestin recruitment [4]: 12.5 nM
Compound: CCL2: chemokine, natural agonist of CCR2
displacement of the binding of CCL2-Alexa-647 with HEK-CCR2 [5]: could displace dose-dependently; also recorded: displaces dose-dependently

induction of chemotaxis by the peptide itself, HEK-CCR5 [6]: did not induced chemotaxis
induction of chemotaxis by the peptide itself, HEK-CCR2 [9]: did not induced chemotaxis
induction of chemotaxis by the peptide itself, HEK-CX3CR1 [10]: did not induced chemotaxis
Compound: CKLFTGL [ECL1 (C), peptide from extracellular juxtamembranous region of CCR2]
cytotoxicity on HEK-CCR2 [7]: no significant cell death
cytotoxicity on MBCM [8]: no significant cell death
induction of chemotaxis by the peptide itself, mouse leukocytes [11]: did not induced chemotaxis

From patent publication US10253087B2, “CCR2 antagonist peptides” (UNIVERSITE PIERRE ET MARIE CURIE (Paris 6), priority 2011, dated 2019)
